From publication doi:10.1101/2024.03.24.586400 (bioRxiv, 2024)
Each block holds one molecule with its values, some of them ahead of it. No end group written: not given here.

Assays:
Experiment in all cases: grating-coupled interferometry
[1] = target: SARNP UCM-1 and UCM-4 peptides
[2] = target: SARNP UCM-1 peptide (GCI) (human)
[3] = target: TREX-2^M, minimal recombinant TREX-2 complex (GANP Sac3 domain residues 582-1004, PCID2, SEM1) (human) (UniProt O60318)
[4] = target: UAP56 (DDX39B), recombinant wild type (human, UniProt Q13838 1-428)
Chain of UAP56 (DDX39B), recombinant wild type (human, UniProt Q13838 1-428) (Q13838 whole entry): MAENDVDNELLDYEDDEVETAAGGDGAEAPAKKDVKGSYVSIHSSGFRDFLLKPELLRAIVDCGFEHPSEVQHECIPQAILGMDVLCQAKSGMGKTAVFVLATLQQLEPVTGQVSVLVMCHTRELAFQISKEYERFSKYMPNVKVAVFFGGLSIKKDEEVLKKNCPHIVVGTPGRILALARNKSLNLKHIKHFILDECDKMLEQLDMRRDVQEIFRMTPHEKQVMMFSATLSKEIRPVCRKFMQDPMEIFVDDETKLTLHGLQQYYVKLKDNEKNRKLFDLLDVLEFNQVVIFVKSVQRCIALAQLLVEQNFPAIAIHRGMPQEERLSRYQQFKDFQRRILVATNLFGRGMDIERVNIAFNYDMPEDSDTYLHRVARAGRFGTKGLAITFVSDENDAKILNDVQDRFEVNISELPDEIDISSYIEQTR

Chain of UAP56 (DDX39B), recombinant wild type (from UniProt Q13838 1-428) (enzyme) (Q13838 whole entry): as above
Chain of TREX-2^M, minimal recombinant TREX-2 complex (GANP Sac3 domain residues 582-1004, PCID2, SEM1) (human) (O60318 582-1004, chain 1 of 3): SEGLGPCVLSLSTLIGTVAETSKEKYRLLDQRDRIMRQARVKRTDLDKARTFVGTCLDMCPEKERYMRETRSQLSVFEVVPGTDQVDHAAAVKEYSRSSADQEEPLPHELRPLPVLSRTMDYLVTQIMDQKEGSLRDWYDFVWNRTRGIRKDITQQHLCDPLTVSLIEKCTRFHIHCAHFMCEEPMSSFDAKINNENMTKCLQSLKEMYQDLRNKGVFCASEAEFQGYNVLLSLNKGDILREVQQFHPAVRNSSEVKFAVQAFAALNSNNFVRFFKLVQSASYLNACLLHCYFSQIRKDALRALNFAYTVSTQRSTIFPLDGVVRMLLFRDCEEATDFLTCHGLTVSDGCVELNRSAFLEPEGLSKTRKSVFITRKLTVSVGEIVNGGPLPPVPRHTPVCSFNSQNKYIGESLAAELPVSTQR
Chain of TREX-2^M, minimal recombinant TREX-2 complex (GANP Sac3 domain residues 582-1004, PCID2, SEM1) (human) (Q5JVF3 whole entry, chain 2 of 3, further chain, the tested form may be a part): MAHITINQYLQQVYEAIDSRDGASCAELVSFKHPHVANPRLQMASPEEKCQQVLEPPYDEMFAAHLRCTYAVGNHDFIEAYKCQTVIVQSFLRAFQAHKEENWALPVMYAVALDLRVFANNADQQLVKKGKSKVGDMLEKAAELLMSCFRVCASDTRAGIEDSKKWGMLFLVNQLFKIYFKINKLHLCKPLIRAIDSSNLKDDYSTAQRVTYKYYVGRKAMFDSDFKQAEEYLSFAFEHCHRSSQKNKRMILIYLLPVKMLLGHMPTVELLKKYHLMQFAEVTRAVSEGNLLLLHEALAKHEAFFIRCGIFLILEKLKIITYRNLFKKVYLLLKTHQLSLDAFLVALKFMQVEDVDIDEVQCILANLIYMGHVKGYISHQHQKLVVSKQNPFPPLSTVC
Chain of TREX-2^M, minimal recombinant TREX-2 complex (GANP Sac3 domain residues 582-1004, PCID2, SEM1) (human) (P60896 whole entry, chain 3 of 3, further chain, the tested form may be a part): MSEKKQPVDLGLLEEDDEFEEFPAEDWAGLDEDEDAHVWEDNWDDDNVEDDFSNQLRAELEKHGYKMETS

- Kd [1]: 10 to 20 µM
- Kd [2]: 12 µM
Molecule: UAP56 (DDX39B), recombinant wild type (from UniProt Q13838 1-428) (enzyme)

- Kd [3]: 0.17 µM
Molecule: UAP56 lacking residues 1-28 (from UniProt Q13838 28-428) (domain or fragment)

- Kd [4]: 24 µM
Molecule: MDMSLDDII (also: biotin, position not given here) [ALYREF N-UBM peptide (GCI)]
